Measured values published in US9644034B2, “Anti-RSPO2 antibodies and uses thereof” (OncoMed Pharmaceuticals, Inc., priority 2011, dated 2017).

Tests used:
human RSPO2 [1] = biological target: T1, human RSPO2 (Homo sapiens, UniProt Q6UXX9); experiment: FACS binding of 130M23 and humanized 130M23 to HEK293 cells expressing FLAG-RSPO2furin-CD4TM-GFP; conditions: five-fold serial dilutions
T1 construct: followed by the furin-like domains of RSPO2 (aa 31-146); expressed in transfected cells; host or cells: HEK-293
T1 sequence (Q6UXX9 31-146): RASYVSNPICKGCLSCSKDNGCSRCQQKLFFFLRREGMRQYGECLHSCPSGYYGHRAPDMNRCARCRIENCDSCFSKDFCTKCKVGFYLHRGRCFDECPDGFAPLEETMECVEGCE
Method: HEK293 cells were transiently transfected with an expression vector encoding FLAG-RSPO2furin-CD4TM-GFP. As described in Example 11, FLAG-RSPO2furin-CD4TM-GFP is a chimeric fusion protein enabling cell surface expression of the N-terminal furin-like domains of human RSPO2. FLAG-RSPO2furin-CD4TM-GFP transfected cells were incubated in the presence of anti-RSPO2 antibody 130M23 or humanized anti-RSPO2 antibody […]. Five-fold serial dilutions of each antibody were examined for their ability to bind to the RSPO2 expressing cells. The cells were stained with Phycoerythrin conjugated anti-IgG to reveal bound antibody. The cells were analyzed on a FACSCalibur instrument (BD Biosciences, San Jose, Calif.) and the data was processed using FlowJo software.

human RSPO2 [2] = biological target: T1, human RSPO2; experiment: FACS screening of hybridoma supernatants on HEK-293 cells expressing FLAG-RSPO2furin-CD4TM-GFP; format: binding
Text: Antibodies were generated against recombinant human RSPO2 protein amino acids 22-205 (R&D Systems, Minneapolis, Minn.). Mice (n=3) were immunized with RSPO2 protein using standard techniques. Sera from individual mice were screened against RSPO2 approximately 70 days after initial immunization using FACS analysis. The animal with the highest antibody titer was selected for final antigen boost after which spleen cells were isolated for hybridoma production. SP2/0 cells were used as fusion partners for the mouse spleen cells. Hybridoma cells were plated at 1 cell per well in 96 well plates, and the supernatants were screened against human RSPO2 by FACS analysis.
As described in Example 5, for FACS screening of anti-RSPO2 antibodies a chimeric fusion protein enabling cell surface expression of the N-terminal furin-like domains of human RSPO2 was constructed. Similar to what is depicted in FIG. 5A for RSPO1, the RSPO2 fusion protein contains a N-terminal FLAG tag, followed by the furin-like domains of RSPO2 (aa 31-146) and fused to the transmembrane and intracellular domain of human CD4 and a C-terminal green fluorescent protein tag (FLAG-RSPO2furin-CD4TM-GFP).
HEK-293 cells were transfected with FLAG-RSPO2furin-CD4TM-GFP. […] The cells were analyzed on a FACSCalibur instrument (BD Biosciences, San Jose, Calif.) and the data was processed using FlowJo software.

[3] = tested on: β-catenin signaling induced by RSPO3; experiment: TOPflash luciferase assay in HEK-293 cells, Wnt3a plus human RSPO3; format: cell-based; conditions: Wnt3a 5 ng/ml, RSPO3 10 ng/ml
Method: (§1) HEK-293 cells were transfected with a 6×TCF-luciferase reporter vector (TOPflash, Millipore, Billerica, Mass.). After 24-48 hrs, the transfected HEK-293 cells were incubated with a combination of Wnt3a (5 ng/ml) and human RSPO2 (10 ng/ml, R&D BioSystems) or human RSPO3 (10 ng/ml, R&D BioSystems) in the presence of anti-RSPO2 antibodies 130M23, 130M24, 130M25, 130M26, 130M27, and 130M28. Cells were incubated with a combination of Wnt3a and RSPO, Wnt3a only or with no addition as controls. The cells were incubated for 16 hours and luciferase activity was measured using Steady-Glo® Luciferase Assay System according to the manufacturer's instructions (Promega, Madison, Wis.).

β-catenin signaling = experiment: Luciferase assay in STF-293 cells with LU2 cells, lung tumor cell-conditioned medium and Wnt3a-L cell-conditioned medium; format: cell-based, human
Method: Conditioned medium from human lung tumor LU2 cells was prepared as described in Example 3 and soluble LGR5-Fc was produced as described in Example 2.
STF-293 cells were incubated with LU2 cells plus 25% lung tumor cell-conditioned medium plus 25% Wnt3a-L cell-conditioned medium. Antibody 130M23 and soluble LGR5-Fc were added to the cells in 5-fold serially dilutions from 50 μg/ml to 0.0006 μg/ml. An irrelevant monoclonal antibody, similarly diluted, and a control Fc fusion protein (50 ug/ml) were used as negative controls. The cells were incubated for 20 hours and luciferase activity was measured using Steady-Glo® Luciferase Assay System according to the manufacturer's instructions (Promega, Madison, Wis.).

[4] = tested on: PN7 pancreatic tumor cells; experiment: PN7 pancreatic tumor xenograft growth in NOD/SCID mice; format: in vivo
Method: Dissociated PN7 pancreatic tumor cells (1×10^5cells) were injected subcutaneously into the flanks of 6-8 week old NOD/SCID mice. Tumors were allowed to grow for 25 days until they reached an average volume of 130 mm^3. The mice were randomized (n=10 per group) and treated with anti-RSPO2 antibody 130M23, anti-FZD antibody 18R5, gemcitabine, a combination of 130M23 and gemcitabine, a combination of 18R5 and gemcitabine, a combination of 130M23 and 18R5, a combination of 130M23, 18R5 and gemcitabine, or control antibody 1B7.11. Anti-RSPO2 antibody 130M23 was dosed at 10 mg/kg once a week, anti-FZD antibody 18R5 was dosed at 20 mg/kg once a week, and gemcitabine was dosed at […] once a week. Administration of the antibodies and gemcitabine was performed via injection into the intraperitoneal cavity. Tumor growth was monitored and tumor volumes were measured with electronic calipers at specific time points. Data are expressed as mean±S.E.M. A parallel set of experiments included mice treated with a FZD8-Fc soluble receptor (10 mg/kg) in combination with gemcitabine and FZD8-Fc in combination with 130M23 and gemcitabine.

[5] = tested on: RSPO2-induced β-catenin signaling; experiment: TOPflash luciferase assay in HEK-293 cells, Wnt3a plus human RSPO2; format: cell-based; conditions: Wnt3a 5 ng/ml, RSPO2 10 ng/ml
Method: as §1

[6] = tested on: PN31 pancreatic tumor cells; experiment: PN31 pancreatic tumor xenograft growth in NOD/SCID mice; format: in vivo; conditions: antibodies 15 mg/kg once a week, intraperitoneal
Method: Dissociated PN31 pancreatic tumor cells (1×10^5cells) were injected subcutaneously into the flanks of 6-8 week old NOD/SCID mice. Tumors were allowed to grow for 61 days until they reached an average volume of 120 mm^3. The mice were randomized (n=10 per group) and treated with anti-RSPO1 antibody 89M5, anti-RSPO2 antibody 130M23, gemcitabine, a combination of 89M5 and gemcitabine, a combination of 130M23 and gemcitabine, or control antibody 1B7.11. Antibodies were dosed at 15 mg/kg once a week, and gemcitabine was dosed at […] once a week. Administration of the antibodies and gemcitabine was performed via injection into the intraperitoneal cavity. Tumor growth was monitored and tumor volumes were measured with electronic calipers at specific time points. Data are expressed as mean±S.E.M.

PN7 tumors = experiment: Serial transplantation of cells from treated PN7 tumors (tumorigenicity); format: in vivo, NOD-SCID mice; conditions: 90 cells injected, 40 days growth with no treatment; vs control antibody
Method: The PN7 tumors described above were processed to yield single cell suspensions. Mouse cells were depleted from the cell mixtures using biotinylated anti-H2K^d and anti-CD45 antibodies and streptavidin-conjugated magnetic beads. The remaining human tumor cells were serially transplanted into a new cohort of mice. 90 tumor cells from each treatment group were injected into the flanks of NOD-SCID mice (n=10 mice per group). Tumors were allowed to grow for 40 days with no treatment and tumor volumes were measured with electronic calipers.

binding of RSPO2 to LGR5 = biological target: T2, binding of RSPO2 to LGR5 (Homo sapiens, UniProt Q6UXX9); experiment: FACS: blocking of soluble RSPO2-Fc binding to LGR5 on HEK-293 cells; conditions: RSPO2-Fc 10 μg/ml
T2 construct: full-length human RSPO1, RSPO2, RSPO3 and RSPO4 were ligated in-frame to a human Fc region; made in house; host or cells: RSPO2-Fc: insect cells (baculovirus); LGR5 construct: transiently transfected HEK-293
T2 sequence (Q6UXX9 22-243 L186P): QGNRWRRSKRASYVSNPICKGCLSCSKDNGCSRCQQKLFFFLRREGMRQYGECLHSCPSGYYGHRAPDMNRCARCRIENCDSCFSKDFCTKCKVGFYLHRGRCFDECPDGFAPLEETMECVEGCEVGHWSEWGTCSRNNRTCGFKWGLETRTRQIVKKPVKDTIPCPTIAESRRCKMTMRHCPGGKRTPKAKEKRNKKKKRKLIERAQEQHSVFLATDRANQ
Method: HEK-293 cells were transiently transfected with the FLAG-LGR5-CD4TM-GFP construct (previously described in Example 2). After 48 hours, transfected cells were suspended in ice cold PBS containing 2% FBS and heparin and incubated on ice in the presence of RSPO2-Fc protein (10 μg/ml) and antibodies 130M23, 130M24, 130M25, 130M26, 130M27, and 130M28. A second incubation with 100 μl PE-conjugated anti-human Fc secondary antibody was performed to detect cells bound by the RSPO2-Fc fusion protein. The cells were analyzed on a FACSCalibur instrument (BD Biosciences, San Jose, Calif.) and the data was processed using FlowJo software.

B1: 130M23: anti-RSPO2 monoclonal antibody, hybridoma ATCC PTA-12021; variable regions SEQ ID NO:27 and SEQ ID NO:28 (antibody, V domains shown)
VH: EVKLVESGGGLVKPGGSLKFSCAASGFSFSSYAMSWVRQTPEKRLEWVASISSGGSTYYPDSVKGRFTISRDNVRNILYLQMSSLRSEDTAMYFCARGGDPGVYNGDYEDAMDYWGQGTSVTVSS
VL: DIVMTQSHKFMSTSVGDRVSITCKASQDVSSAVAWYQQKPGQSPKLLIYWASTRHTGVPDRFTNSGSGTDYTLTISSVQAEDLALYYCQQHYSTPWTFGGGTKLEIK
modifications: 130M23 Heavy chain variable region; 130M23 Light chain variable region
- binding to human RSPO2 (FACS) (human RSPO2 [1]): bind
- binding to RSPO2 (FACS) (human RSPO2 [2]): bound
- blocking of β-catenin signaling induced by RSPO3 [3]: did not block
- induction of luciferase activity by lung tumor cell-conditioned medium and Wnt3a-conditioned medium (β-catenin signaling; increasing concentrations, 50 to 0.0006 μg/ml): reduced
- potency relative to LGR5-Fc (β-catenin signaling; more potent than LGR5-Fc): greater than 100 fold
- proliferation (anti-Ki67 antibody IHC) ([4]; PN7 tumors of treated mice): significant decrease in proliferation
- morphology of PN7 tumors (IHC) ([4]; treated vs untreated mice): induced morphological changes
- reduction in tumor growth ([4]; vs control antibody, 130M23 10 mg/kg, 18R5 20 mg/kg, gemcitabine once a week, intraperitoneal): approximately 55%
- effect on RSPO2-induced β-catenin signaling [5]: completely blocked
- effect on tumor growth as single agents [6]: only a minimal effect
- tumorigenicity of cells isolated from treated mice (PN7 tumors): greatly decreased tumorigenicity
- blocking of binding of RSPO2 to LGR5 (binding of RSPO2 to LGR5): blocked
